Values belong to the binder of their own block, whether it stands above or below them.
Legend:
HLA-DP4 [1] = molecular target: T1, HLA-DP4 (human, UniProt P20036 29-222; P04440 30-225, limits assumed); assay: cell-based competitive binding assay on T2/DP4 cells, reference peptide Oxy271-287
T1 construct: whole, on cells; also called T2/DP4

HLA-DP2 = molecular target: T2, HLA-DP2 (human, UniProt P20036 29-222; P04440 30-225, limits assumed); assay: cell-based competitive binding assay on T2/DP2 cells, reference peptide Oxy271-287
T2 construct: whole, on cells; also called T2 cells transduced with DP2
T2 MHC II alpha: not shown
T2 MHC II beta: not shown

[2] = molecular target: T3, WT1330-348 presented by DP4 on K562 cells (human, UniProt P20036 29-260; P04440 30-258); assay: flow cytometry on peptide-pulsed K562 transfectants, PE anti-mouse secondary
T3 construct: whole, on cells; Exogenously pulsed peptide

[3] = molecular target: T4, WT1330-348 presented by DP5 on K562 cells (human, UniProt P20036 29-260; P04440 30-258); assay: as above
T4 construct: whole, on cells; Exogenously pulsed peptide
T4 MHC II alpha: not shown
T4 MHC II beta: not shown
T4 peptide: CNKRYFKLSHLQMHSRKHT

[4] = molecular target: T5, WT1330-348 presented by DP2 on K562 cells (human, UniProt P20036 29-260; P04440 30-258); assay: as above
T5 construct: whole, on cells; Exogenously pulsed peptide
T5 MHC II alpha: not shown
T5 MHC II beta: not shown
T5 peptide: CNKRYFKLSHLQMHSRKHT

WT1330-348 = molecular target: T6, WT1330-348; assay: biolayer interferometry (Octet Red96), biotinylated peptide on streptavidin tips, 5H2 in solution, steady state fit with 1:1 model
T6 construct: also called WT1 peptide
T6 peptide: CNKRYFKLSHLQMHSRKHT

HLA-DP4 [5] = molecular target: T1, HLA-DP4; assay: cell-based competitive binding assay on T2/DP4 cells, graded WT1328-348 against reference peptide Oxy271-287

T1 sequence (P20036 29-222 limits assumed, chain 1 of 4, other chains not shown): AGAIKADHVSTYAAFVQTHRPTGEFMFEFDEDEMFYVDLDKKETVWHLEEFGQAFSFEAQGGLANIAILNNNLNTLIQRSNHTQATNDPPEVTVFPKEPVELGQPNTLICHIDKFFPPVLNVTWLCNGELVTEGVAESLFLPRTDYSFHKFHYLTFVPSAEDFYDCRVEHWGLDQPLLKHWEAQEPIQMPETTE
T1 sequence (P04440 30-225 limits assumed, chain 2 of 4, other chains not shown): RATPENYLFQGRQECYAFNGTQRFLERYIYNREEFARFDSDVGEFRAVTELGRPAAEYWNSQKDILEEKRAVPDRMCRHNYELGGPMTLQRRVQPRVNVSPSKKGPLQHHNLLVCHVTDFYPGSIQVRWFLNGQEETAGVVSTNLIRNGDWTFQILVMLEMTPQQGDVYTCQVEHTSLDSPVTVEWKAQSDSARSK

B1: WT1235-243 (peptide)
peptide: CMTWNQMNL
notes: Negative control peptide; also called HLA-A2 restricted peptide
binding result (HLA-DP4 [1]): no binding (tested: any tested concentration)
binding result (HLA-DP2): no binding (tested: any tested concentration)

binding result [2]: binds
binding result [3]: binds
binding result [4]: binds
Kd (WT1330-348): ~50 nM
B2: WT1-specific mAb, 5H2 (antibody, V domains shown)
VH: EVQLQQSGAELVRPGALVKLSCKASGFNIKDYYMHWVKQRPEQGLEWIGWIDPENGNTIYDPKFQGKASITADTSSNTAYLQLSSLTSGDTAVYYCTRDGYYMVFAYWGQGTLVTVSA
VL: DIQMTQSPSSLSASLGGKVTITCKASQDINKCIAWYKHKPGKGPRLLIHYTSILQPGIPSRFSGSGSGRDYSFSISNLEPEDIATYYCLQYDNLYTFGGGTKLEIK
notes: also called clone 5H2; 5H2 mAb

binding result (HLA-DP4 [5]): binds
Binder: PGCNKRYFKLSHLQMHSRKHT (also called 21-mer peptide) [WT1328-348]

From patent publication US20260042827A1 (UNIVERSITY HEALTH NETWORK, published 2026)
